Tests used:
Details in all cases: remark: other sources report otherwise
[1] = target: recombinant homotrimeric HA A/Anhui/1/05 H5N1 (Influenza A virus A/Anhui/1/2005(H5N1)); assay: protein microarray, purified IgG, trimeric HA
[2] = target: recombinant homotrimeric HA A/Indonesia/5/05 H5N1 (Influenza A virus A/Indonesia/5/2005(H5N1)); assay: protein microarray, purified IgG, trimeric HA
[3] = target: recombinant homotrimeric HA A/Wisconsin/67/05 H3N2 (Influenza A virus A/Wisconsin/67/2005(H3N2)); assay: protein microarray, purified IgG, trimeric HA
[4] = target: recombinant homotrimeric HA A/Japan/305/57 H2N2 (Influenza A virus A/Japan/305/1957(H2N2)); assay: protein microarray, purified IgG, trimeric HA
[5] = target: recombinant homotrimeric HA A/Netherlands/219/03 H7N7 (Influenza A virus A/Netherlands/219/03(H7N7)); assay: protein microarray, purified IgG, trimeric HA
[6] = target: recombinant homotrimeric HA A/Egypt/3300-NAMRU3/08 H5N1 (Influenza A virus A/Egypt/3300-NAMRU3/2008(H5N1)); assay: protein microarray, purified IgG, trimeric HA
[7] = target: recombinant homotrimeric HA A/chicken/Vietnam/NCVD-016/08 H5N1 (Influenza A virus A/chicken/Vietnam/NCVD-016/2008(H5N1)); assay: protein microarray, purified IgG, trimeric HA
[8] = target: recombinant homotrimeric HA A/northern shoveler/California/HKWF115/07 H6N4 (Influenza A virus A/northern shoveler/California/HKWF115/2007(H6N1)); assay: protein microarray, purified IgG, trimeric HA
[9] = target: recombinant homotrimeric HA A/Solomon Islands/3/06 H1N1 (Influenza A virus A/Solomon Islands/3/2006(H1N1)); assay: protein microarray, purified IgG, trimeric HA
[10] = target: recombinant homotrimeric HA A/California/4/09 H1N1 (Influenza A virus A/California/04/2009(H1N1)); assay: protein microarray, purified IgG, trimeric HA
[11] = target: recombinant homotrimeric HA A/Hong Kong/2108/03 H9N2 (Influenza A virus A/HK/2108/2003(H9N2)); assay: protein microarray, purified IgG, trimeric HA
[12] = target: recombinant homotrimeric HA A/Hong Kong/1073/99 H9N2 (Influenza A virus A/Hong Kong/1073/99 (H9N2)); assay: protein microarray, purified IgG, trimeric HA
[13] = target: recombinant homotrimeric HA A/Vietnam/1203/04 H5N1 (Influenza A virus A/VietNam/1203/2004(H5N1)); assay: protein microarray, purified IgG, trimeric HA
[14] = target: recombinant homotrimeric HA A/South Carolina/1/18 H1N1 (Influenza A virus A/South Carolina/1/18 (H1N1)); assay: protein microarray, purified IgG, trimeric HA
[15] = target: recombinant homotrimeric HA A/Hong Kong/156/97 H5N1 (Influenza A virus A/Hong Kong/156/97 (H5N1)); assay: protein microarray, purified IgG, trimeric HA
[16] = target: recombinant soluble homotrimeric HA of A/swine/Ontario/01911-2/99 (H4N6) (Influenza A virus A/Swine/Ontario/01911-2/99 (H4N6)); assay: HA microarray, BCC supernatant
[17] = target: recombinant soluble homotrimeric HA of A/Wisconsin/67/05 (H3N2) (Influenza A virus A/Wisconsin/67/2005(H3N2)); assay: HA microarray, BCC supernatant
[18] = target: recombinant soluble homotrimeric HA of A/duck/Yangzhou/02/05 (H8N4) (Influenza A virus A/duck/Yangzhou/02/2005(H8N4)); assay: HA microarray, BCC supernatant
[19] = target: recombinant soluble homotrimeric HA of A/chicken/Vietnam/NCVD-016/08 (H5N1) (Influenza A virus A/chicken/Vietnam/NCVD-016/2008(H5N1)); assay: HA microarray, BCC supernatant
[20] = target: recombinant soluble homotrimeric HA of A/Japan/305/57 (H2N2) (Influenza A virus A/Japan/305/1957(H2N2)); assay: HA microarray, BCC supernatant
[21] = target: recombinant soluble homotrimeric HA of A/Solomon Islands/3/06 (H1N1) (Influenza A virus A/Solomon Islands/3/2006(H1N1)); assay: HA microarray, BCC supernatant
[22] = target: recombinant soluble homotrimeric HA of A/Hong Kong/2108/03 (H9N2) (Influenza A virus A/HK/2108/2003(H9N2)); assay: HA microarray, BCC supernatant
[23] = target: recombinant soluble homotrimeric HA of A/Anhui/1/05 (H5N1) (Influenza A virus A/Anhui/1/2005(H5N1)); assay: HA microarray, BCC supernatant
[24] = target: recombinant soluble homotrimeric HA of A/Vietnam/1203/04 (H5N1) (Influenza A virus A/VietNam/1203/2004(H5N1)); assay: HA microarray, BCC supernatant
[25] = target: recombinant soluble homotrimeric HA of A/northern shoveler/California/HKWF115/07 (H6) (Influenza A virus A/northern shoveler/California/HKWF115/2007(H6N1)); assay: HA microarray, BCC supernatant
[26] = target: recombinant soluble homotrimeric HA of A/Indonesia/5/05 (H5N1) (Influenza A virus A/Indonesia/5/2005(H5N1)); assay: HA microarray, BCC supernatant
[27] = target: recombinant soluble homotrimeric HA of A/California/4/09 (H1N1) (Influenza A virus A/California/04/2009(H1N1)); assay: HA microarray, BCC supernatant
[28] = target: recombinant soluble homotrimeric HA of A/Netherlands/219/03 (H7N7) (Influenza A virus A/Netherlands/219/03(H7N7)); assay: HA microarray, BCC supernatant

B1: TCN-557 (5081_A04) (antibody, V domains shown)
VH: QVQLVQSGAEVKKPGASVKVSCKASGHTFTGYYIHWVRQAPGQGLEWMGWINPDSGATSSAQNFQGRVTMTGDTSSSTAYMELSRLSFDDTAVYYCARVLFTSPFDFWGEGTLVTVSS
VL: QAVVTQEPSLAVSPGGTVTLTCGSSTGAVTRGHYPYWFQQKPGQAPRALIYDSAGNRHSWTPARFSGSLLGGKAALTLSGAQPEDEAEYYCLLSYSGVWVFGGGTKLTVL
- Trimeric HA Binding: RLU [1]: 22000 RLU
- Trimeric HA Binding: RLU [2]: 23300 RLU
- Trimeric HA Binding: RLU [3]: 327 RLU
- Trimeric HA Binding: RLU [4]: 28900 RLU
- Trimeric HA Binding: RLU [5]: 7250 RLU
- Trimeric HA Binding: RLU [6]: 23600 RLU
- Trimeric HA Binding: RLU [7]: 25400 RLU
- Trimeric HA Binding: RLU [8]: 12600 RLU
- Trimeric HA Binding: RLU [9]: 22700 RLU
- Trimeric HA Binding: RLU [10]: 1170 RLU
- Trimeric HA Binding: RLU [11]: 7660 RLU
- Trimeric HA Binding: RLU [12]: 440 RLU
- Trimeric HA Binding: RLU [13]: 25400 RLU
- Trimeric HA Binding: RLU [14]: 3590 RLU
- Trimeric HA Binding: RLU [15]: 22800 RLU
- Trimeric HA Binding: RLU [16]: 27000 RLU
- Trimeric HA Binding: RLU [17]: 10200 RLU
- Trimeric HA Binding: RLU [18]: 50100 RLU
- Trimeric HA Binding: RLU [19]: 45500 RLU
- Trimeric HA Binding: RLU [20]: 43400 RLU
- Trimeric HA Binding: RLU [21]: 40700 RLU
- Trimeric HA Binding: RLU [22]: 35300 RLU
- Trimeric HA Binding: RLU [23]: 46000 RLU
- Trimeric HA Binding: RLU [24]: 47300 RLU
- Trimeric HA Binding: RLU [25]: 24400 RLU
- Trimeric HA Binding: RLU [26]: 45200 RLU
- Trimeric HA Binding: RLU [27]: 17600 RLU
- Trimeric HA Binding: RLU [28]: 6780 RLU

— patent US20150086555A1
